assay: yeast display, Sf9 membrane polyspecificity reagent, FACS + sequencing; frameworks hold sequencing errors
In short: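 Genes from sorted yeast were amplified by colony PCR, read by MiSeq 2 × 250 sequencing and filtered on CDR length. These cells carried a synthetic nanobody library in Saccharomyces cerevisiae BJ5465 and were sorted by FACS into low and high (top ~1%) gates on anti-HA and streptavidin fluorescence. Polyreactivity is labelled according to the gate of origin.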

Row | Sequence | polyreactivity (PSR sort gate)
1 | QVQLVESGGGLVQAGGSLRLSCAASGRIFHSYTMGWYRQAPGKERELVAAINWSGTRTYYADSVKGRFTISRDNAKNTVYLQMNSLKPEDTAVYYCNRVGVTRSYRYDYWGQGTQVTVSS | high polyreactivity
2 | QVQLVESGGGLVQAGGSLRLSCAASGRTFATNTMGWYRQAPGKERELVAAITFSGGSTYYADSVKGRFTISRDNAKNTVYLQMNSLKREDTAVYYCNVRSPYYSYRYRYGYWGHGTQVTVSS | high polyreactivity
3 | QVQLVESGGGLVQAGGSLRLSCAASGRIFGYNAMGWYRQAPGKERELVAAITNGGSTNYADSVKGRFTISRDNAKNTVYLQMNSLKPEDTAVYYCAVKWYPPGHDYWGQGTQVTVSS | low polyreactivity
4 | QVQLVESGGGLVQAGGSLRLSCAASGSIFLVYAMGWYRQAPGKERELVAASDWSDTDTYYADSVKGRFTISRDNAKNTFYLQMNSLKPEDTAVYYCAADHVGVDFEYWGQGTQVTVSS | low polyreactivity
5 | QVQHVESVGGLVQAGGSLRLSCAASGGIFWVYAMGWYRQAPGKERELVAAISNSDTSTSYADSVKGRFTISRDNAKNTVYLQMNSLKPEDTAVYYCNADSPSLSGDYWGQGTQVTVSS | low polyreactivity
6 | QVQLVESGGGLVQAGGSLRLSCAASGFTFAFNAMGWYRQAPGKERELVAAISGTVSRTRYADSVKGRFTISRDNAKNTVYLQMNSLKPEDTAVYYCAARGYYRYSYPYQPYRMDYWGQGTQVTVSS | high polyreactivity
7 | QVQLVESGGGLVQAGGSLRLSSAASGLIFRHNAMGWYRQAPGKERELVAAISSTGGRTYYADSVKGRFTISRDNAKNTVYLQMNSLKPEDTAVYYCAARHTKALWSPQNGYYWGQGTQVTVSS | high polyreactivity
8 | QVQLQERAAWCRRAGSLRLSCAASGNISDYYFMGWYRQAPGKERERVAAIAPGSKTYYADSVKGRFTISRDNAKNTVYLQMNSLKPEDTAVCFCAANSTQYTWFDYWGQGTQVPVSS | low polyreactivity
9 | QVQLVESGGGLVQAGGSLRLSCAASGSIFFYNAMGWYRQAPGKERELVAAITTRGGSTYYADSVKGRFTISRDNAMNTVYLQKNSLKPEDTAVYYCTADYYWTSLAMDSWGQGTQVTVSS | low polyreactivity
10 | QVQLVESGGGLVQAGGSLRLSCAASGSTLTLYAMGWYRQARGKERELVAAIDWTGGSTYYADSVKGRFTISRDNAKNTVYLQMNSLKPEDTAVYYCAAHSFTEGYWYEYWGQGTQVTVSS | high polyreactivity
11 | QVQLVESGGGLVQAGGSLRLSCAASGRIFPYYAMGWYRQAPGKERELVAAITTSGGSTYYADSVKGRFTISRDNAKNTVYLQMNSLKPEDTAVYYCARDLYYYSPYDEYDSWGQGTQVTVSS | low polyreactivity
12 | QVQLVESGGALVQAGGRLRLSCAASGTFERKVMGWYIHAPGKERELVAAISRSGSSTYYADSLKGRFTISRDNAKNTVYLQMNSLKPEDTAVYYCAARGTKQHFNYWGQGTQVTVSS | high polyreactivity
13 | QVQLVESGGCLVQAGGSLRLSCAASGSISYSYSMGWYRQAPGKERELVATISWGGGRTYYADSVKGRFTISRDNAKNTVYLQMNSLKPEDTAVYYFATAYRFRYGFAKRYDYWGQGTQVTVSS | low polyreactivity
14 | QVQLVESGGGLVQAGGSLRLICAASGLIFPRYDMGWYRQAPGKERELVAAITSGGGTYYADSVKGRFTISRDNAKNTVYLQMNSLKPEDTAVYYCARDHYRHSRYFYRYDYWGQGTQVTVSS | low polyreactivity
15 | QVQLVESGGCLVQAGCSRRLSCAASVRIFARNTMGWSRQAPGKERELVAAISWGGGRTYYADSVKGRFTISRDNAKNTVYLQMNSLKPEDTAVYYCAAETLQIPRGEYWGQGTQVTVSS | low polyreactivity
16 | QVQLVESGGGLVQAGGSLRLSCAASGIIFPYYAMGLYRQAPGKERELVAAITSRTGSTYYADSVKGRFTISRDNAKNTVYLQMNSLNTEYTAVYYCIKEREPYGYWSFDYWGQGTQVTVSS | low polyreactivity
17 | QVQLVESGGGLVQAGGSLRLICAASGSIFFTYVMGWYRQSPGKERELVAAISSDDNTNYADSVKGRFTSSRDNAKNTVYLQMHSLKPEDTAVYYCNADTTRYPYYDYGYYDYDYWGQGTQVTVSS | low polyreactivity
18 | QVQLVESGGGLVQAGGSLRLTCAASGIIFYPYAMGWYRQAPGKERELVAAISIGGGSTYYADSVKGRFTISRDNAKNTVYLQMNSLKPEDTAVYYCAAGTPYGILGYYYWGQGTQVTVSS | low polyreactivity
19 | QVQLVESGGGLVQGGGSLRLSCAASGRIFGVNAMGWYRQAPGKERELVATITSGTSTYYADSVKGRFTIARDNATTTVYLQITSLKPEDTAVYYSATSRVIPWDYDSWGQGTQVTVSS | low polyreactivity
20 | QVQLVESGGGLVQAGGSLRLSCAASGSIFGTNAMGWYRQAPGKERELVAAISLSTGSTYYADSVKGRFTISRDNAKNNVYLQMNSLKPEYTAVYYCAAYYVTPIYYYWGQGSQVTVSS | low polyreactivity
21 | QVQLVESRGGLVQAGGSLRLSCAASGSIFIYNAMGWYRQAPGKERELVAANSSSGGSTYYADSVKGRFTNSRDNEKNTVYLQMNSQNPEDTAVYYCAARTYYVRGLRGRPGMDYWGQGTQVTVSS | low polyreactivity
22 | QVQLVESGGGLVQAGGSLRLSCAASGSIFNYYALGWYRQAPGKEREFVADISGSGSSTYYADSVKGRFTISRDNAQNTVYLQMNSLKPEDTAVYYCNAEYYWGVGYYPYSDYGYWGQGTQVTVSS | low polyreactivity

Row | Sequence | polyreactivity (PSR sort gate)
23 | QVQLVESGGGLVQAGGSLRLSCAASGFTFYGYAMGWYRQAPGKERELVAAISSSGGRTYYADSVKGRFTISRDNAKNTVYLQMNSLKPEDTAVYYCAGDYTSRDYYYWGQGTQVTVSS | high polyreactivity
24 | QVQLVESGGGLVQAGGSLRFSCADSGSIFVRYAMGWYRQAPGKERELVAAISVRGGRTYYADSVKGRFTISRDNAKNTVYLQMNSLKPEDTAVYYCAAQLYYYYTYVPPGGYWGQGTQVTVSS | high polyreactivity
25 | QVQLVESGGGLVQAGGSLRLSCAASGSTFYIYAMGWYRQAPGKERELVAAINWRTGSTYYADSVKGRFTISRDNAKNTVYLQMNSLKPEDTAVYYCNAYTKHWSYWGQGTQVTVSS | high polyreactivity
26 | QVQLVESGGGLVQAGGSLRLSCAASGFTLLKNAMRGYRQAPGKERELVAAIRVSGGSTYYADSVKGRFTISRDNAKNSVYLQMNSLKPEDTAVYYCAAKYLRWPVSTMYYWGQGTQVTVSS | high polyreactivity
27 | QVQLVESGGGLVHAGGSLRISCAASGSTFEWNAMGWYRQAPGKEREFVAAISKTGDGTYADSVKGRFTISRDNAKNSVYLQMNSLKPEDTAVYYCAAVDGFWVNYWYRIGYDYWGQGTQVTVSS | low polyreactivity
28 | QVQLVESGGGLVQAGGSLRLSCAASGSTFGKYAMGWYRQAPGKERELVATITVSGGNTNYADSVKGRFTISRDNAKNTVYLQMNSLKPEDTAVYYCAARNYVAGHKYIMNYWGQGTQVNVSS | low polyreactivity
29 | QVQLVESGGGLVQAGGSLRLSCAASGSTFTHYAMGWYRQAPGKERELVAAISWGGGTTRYADSVKGRFTISRDNAKNTVYLQMNSLKPEDTAVYYCAAYRTHGPPRAIRFDYWGQGTQVTVSS | high polyreactivity
30 | QDHHVESGGGLVQARGTLRLSCAASGIIYSYYAMGWFRQAPGKEWELVAAITASGGSTYYADSVKGRFTISRDNAKNTVYLQMNSLKPQDTGVSYCAAGSFFLHLIGYSTVSYGRNYWGQGTQVTVAS | high polyreactivity
31 | QVQLVESGGGLVQAGGSLRLSCAASGRTFYGYAMGWYRQAPGKEREFVAAINWSGGTTYYADSVKGRFTISRDNAKNTVYLQMNSLKPEDTAVYYCAADYYRIRRWPGYYAYDYWGQGTQVTVSS | high polyreactivity
32 | QVQLVESGGGLVQAGGSLRLSGAASGRIFWYNAMGWYRQAPGKEREVVAGITSGGRTNYADSVKGRFTISRDNAKNTVYLQMNSLKPEDTAVYYCAATHSLRMYYLGQGTQVTVSS | low polyreactivity
33 | QVQLVESGGGLVQAGGSLRLSGAASGSTFRGYAMGWYRQAPGKERELFAAMTYISDSTYYADSVKGRFTISRDNAKNTVYLQMNSLKPEDTAVYYCNAYYDGDWRYTSQETGDHWGQGTQVTVSS | low polyreactivity
34 | QVQLEESGGGLVQAGGSLRLTCAASGFIFKSYTMGWYRQATGKEMELVAAITSTGGGTYYADSVKGRFTISRDNAKNTVYLQMNSLKPEDTAVYYCNARTYVTVDYDFWGQGTQVTVSS | high polyreactivity
35 | QVQLVESGGGLVQAGGSLRLSCAASGFIFPSYAMGWYRQAPGKERELVAAITRSSGSTYYADSVKGRFTISRDNAKNTVYLEMNCLKAVDTAVYYCNAFDYSYYRSPEMDYWGQGTQVTVSS | high polyreactivity
36 | QVQLVESGGGLVQAGGSLRLSCAASGITFYYNAMGWYRQAPGKERELVAAIRSAGSTYYADSVKGRFTISRDNAKNSVYVQMNSLKPEDTAVDYWGQGTQVTVSS | low polyreactivity
37 | QVQLVESGGGLFQAGGSLRLSCAASGSIFYNYGMAWYRHAPGKERELVAAIRASGDSTYYADSVKGRFTISRDNAKNTVYLQMNSLKPEDTEVYYCAARPNQSYYGLYYYWGQGTQVTVSS | low polyreactivity
38 | QVQLVESGGGLVQAGGRLRLSCAASGRTFRWYAMGRYRQAPGKERELVADISSVGSTDYADSVKGRFTISRDNAKNTVYLQMNSLKPEDTAVYFCAADFSPRRYHNLSFGYWGQGTQVTVSS | low polyreactivity
39 | QVQLVESGGGLVHAGGSLRLSCAASGMTFTKNVMGWYRQSPGKERELVAVISRSGGSTYYADSVKGRFTISRDNAKNTVYLQMNSLKPEDTAVYYCNVKGPGPSRGNYWGQGTQVTVSS | low polyreactivity
40 | QVQLVESGGGLVQAGGSLRLSCAASGRIFLWYAMGWYRQAPGKERELVAAISWDTGNTYYADSVKGRFTISRDNAKNTVYLQINSLKPEDTAVYYCNADNYEWGNNYGYWGQGTQVTVSS | low polyreactivity
41 | QVQLVESGGGLVQAGGSLRLSCAASGSIFHTYLMGWYRQAPGKERELVASSTRSGGSTYYADSVKGRFTISRDNAKNTVYLQMNSLKPEDTAVYYCAATYRTANHRYYYWGQGTQVTVSS | high polyreactivity
42 | QVQLVESGGGLVQAGGSLRLSCAASGSIIKYYAMGWYRQAPGKEREFVAAITASSSRTYYADSVKGRFTISRDNAKNKVYLQMNSLKPEDTAVYYCAAVGPGRRRDYWGQGTQVTVSS | high polyreactivity
43 | QVQLVESGGGLVQEGGSLRLSCAASGLISQRNVMGWYRQAPGKERELVARISTSSSGTYYADSVKGRFTISRDNAKNTFYLHMYSLKPEYTAVYYCAVRYRGGAARQIYDYWGQGTQVTVSS | high polyreactivity

Reference: the nanobody polyreactivity screen of Harvey et al. (2022)
